The text below walks through data of PMC13156308.

Assay [1] concerns the target full-length strep-tagged POLD3 (human) (UniProt Q15054). The experiment in a line: BLI; POLD3 immobilised on Streptavidin (SAX) biosensors, BLItz, 1x PBS and 0.02% Tween.
The target of the next assay is GST-tagged MCM2 (human) (UniProt P49736). The experiment in a line: BLI; MCM2 immobilised on Anti-GST biosensors, BLItz, 1x PBS and 0.02% Tween; analyte 0-50.0 nM. On the technique in general: In BLI a coated tip is dipped into the sample, and binding shifts an interference pattern.
Chain of GST-tagged MCM2 (human) (P49736 whole entry): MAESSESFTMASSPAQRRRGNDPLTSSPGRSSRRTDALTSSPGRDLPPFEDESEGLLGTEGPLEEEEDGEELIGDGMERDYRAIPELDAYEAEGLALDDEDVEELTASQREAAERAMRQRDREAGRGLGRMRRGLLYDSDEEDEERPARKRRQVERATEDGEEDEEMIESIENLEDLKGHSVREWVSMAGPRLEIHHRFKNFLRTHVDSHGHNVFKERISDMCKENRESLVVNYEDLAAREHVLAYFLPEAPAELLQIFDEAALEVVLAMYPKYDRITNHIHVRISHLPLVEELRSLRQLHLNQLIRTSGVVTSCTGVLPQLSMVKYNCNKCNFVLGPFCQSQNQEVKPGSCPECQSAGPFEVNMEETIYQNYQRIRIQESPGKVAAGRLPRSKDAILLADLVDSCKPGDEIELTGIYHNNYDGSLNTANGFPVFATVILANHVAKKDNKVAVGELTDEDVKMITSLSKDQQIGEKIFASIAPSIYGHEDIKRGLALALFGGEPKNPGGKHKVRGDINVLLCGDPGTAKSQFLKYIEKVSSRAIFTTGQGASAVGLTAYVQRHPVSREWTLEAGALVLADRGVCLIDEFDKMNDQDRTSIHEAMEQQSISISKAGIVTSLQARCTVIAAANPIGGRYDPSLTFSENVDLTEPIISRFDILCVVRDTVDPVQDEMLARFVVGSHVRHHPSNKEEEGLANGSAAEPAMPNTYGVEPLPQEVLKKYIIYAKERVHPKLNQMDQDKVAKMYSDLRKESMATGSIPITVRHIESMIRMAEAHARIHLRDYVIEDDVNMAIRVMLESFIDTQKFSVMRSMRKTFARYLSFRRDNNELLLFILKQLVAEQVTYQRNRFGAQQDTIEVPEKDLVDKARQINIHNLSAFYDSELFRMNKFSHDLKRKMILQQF

Chain of full-length strep-tagged POLD3 (human) (Q15054 whole entry): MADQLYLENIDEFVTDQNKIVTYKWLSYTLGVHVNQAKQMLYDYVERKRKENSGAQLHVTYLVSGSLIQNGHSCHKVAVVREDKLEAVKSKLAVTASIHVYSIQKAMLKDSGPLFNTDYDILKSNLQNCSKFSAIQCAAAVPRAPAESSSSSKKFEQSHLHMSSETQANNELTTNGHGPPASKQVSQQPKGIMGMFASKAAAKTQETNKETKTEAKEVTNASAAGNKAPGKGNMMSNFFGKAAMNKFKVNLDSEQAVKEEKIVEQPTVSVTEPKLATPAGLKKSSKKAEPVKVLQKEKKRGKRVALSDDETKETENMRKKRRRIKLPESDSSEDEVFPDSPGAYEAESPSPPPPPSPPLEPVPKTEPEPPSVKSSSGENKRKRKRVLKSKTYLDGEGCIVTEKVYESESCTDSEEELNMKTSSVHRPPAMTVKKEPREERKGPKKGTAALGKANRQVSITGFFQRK

In the case of “histone (H3.1-H4)2 tetramer (from UniProt P68431 1-136; P62805 1-103) (complex; other documents disagree on this pair)”, the results for the dissociation constant (Kd) (in assay [1]; with GST-tagged MCM2 (human)) were 2.7 nM and 2.17 nM, respectively.
